Laboratory results from paper PMC5508515 (Cell reports, 2016).
Residue numbers refer to the chain shown, from its start. Numbers in names are those of the source. Read-outs that look alike come from different tables or passages of the source.

Experiments:
[1] = target: purified human IKK1 used for single-particle cryo-EM (human) (UniProt O15111); test: cryo-EM structure
[2] = target: purified human IKK1 used for single-particle cryo-EM (human) (UniProt O15111); test: cryo-EM structure; remark: listed apart in the source
IKK1 (1–676) (human) = IKK1 (1–676) (human) (UniProt O15111); test: SEC
[3] = target: T1, human IKK1 (residues 10–667; EE) (human), O15111; test: crystal structure; settings: remark: other sources report otherwise
T1 chain: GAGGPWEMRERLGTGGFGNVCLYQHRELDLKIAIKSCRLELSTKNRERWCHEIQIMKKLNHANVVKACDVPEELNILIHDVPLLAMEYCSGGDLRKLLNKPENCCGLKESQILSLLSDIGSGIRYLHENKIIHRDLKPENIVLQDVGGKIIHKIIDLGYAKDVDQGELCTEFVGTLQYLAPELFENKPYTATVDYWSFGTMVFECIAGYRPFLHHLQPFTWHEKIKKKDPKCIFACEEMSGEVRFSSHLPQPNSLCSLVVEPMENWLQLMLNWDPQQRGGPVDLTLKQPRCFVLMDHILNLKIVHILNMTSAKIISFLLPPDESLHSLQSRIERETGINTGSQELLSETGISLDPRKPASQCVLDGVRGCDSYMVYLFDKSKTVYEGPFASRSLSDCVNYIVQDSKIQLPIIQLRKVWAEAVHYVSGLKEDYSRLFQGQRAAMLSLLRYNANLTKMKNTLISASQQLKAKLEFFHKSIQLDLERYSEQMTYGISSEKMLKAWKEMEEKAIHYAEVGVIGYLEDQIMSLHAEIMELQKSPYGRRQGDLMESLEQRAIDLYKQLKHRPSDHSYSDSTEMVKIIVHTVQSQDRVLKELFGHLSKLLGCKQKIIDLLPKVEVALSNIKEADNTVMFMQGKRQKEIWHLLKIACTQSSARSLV

[4] = target: T1, human IKK1 (residues 10–667; EE) …; test: crystal structure; settings: remark: other sources report otherwise
[5] = target: T2, HA-IKK1 WT overexpressed in 293T cells (human), O15111; test: SEC; settings: remark: other sources report otherwise
T2 chain: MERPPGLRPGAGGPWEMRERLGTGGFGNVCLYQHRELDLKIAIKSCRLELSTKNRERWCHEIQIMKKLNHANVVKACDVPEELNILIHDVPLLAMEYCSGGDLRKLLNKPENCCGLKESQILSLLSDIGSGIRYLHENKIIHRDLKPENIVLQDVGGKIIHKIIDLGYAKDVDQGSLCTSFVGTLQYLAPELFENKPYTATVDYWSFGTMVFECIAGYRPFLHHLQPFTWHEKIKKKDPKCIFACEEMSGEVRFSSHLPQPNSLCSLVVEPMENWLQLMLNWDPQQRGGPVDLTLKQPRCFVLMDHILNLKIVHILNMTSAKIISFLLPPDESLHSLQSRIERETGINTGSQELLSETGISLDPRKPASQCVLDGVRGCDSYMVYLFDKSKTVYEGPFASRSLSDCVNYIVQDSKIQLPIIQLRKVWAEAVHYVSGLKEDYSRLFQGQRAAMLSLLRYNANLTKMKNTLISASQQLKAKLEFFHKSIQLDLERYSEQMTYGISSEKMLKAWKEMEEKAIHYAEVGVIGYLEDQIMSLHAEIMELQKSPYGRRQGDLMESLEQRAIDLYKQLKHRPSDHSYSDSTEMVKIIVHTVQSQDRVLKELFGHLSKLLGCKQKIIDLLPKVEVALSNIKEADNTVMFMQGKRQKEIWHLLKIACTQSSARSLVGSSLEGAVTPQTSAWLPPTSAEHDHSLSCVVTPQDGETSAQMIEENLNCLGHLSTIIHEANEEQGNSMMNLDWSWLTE

SEC [6] = target: the molecule itself; test: SEC
SEC [7] = target: the molecule itself; test: SEC; remark: listed apart in the source

Molecule: purified human IKK1 used for single-particle cryo-EM (from UniProt O15111 10-660) (enzyme)
- stoichiometry N [1]: 2
- percent of particles not conforming to dimers (hexamer) [2]: 2%
- stoichiometry N [2]: 6

Molecule: IKK1 (1–676) (from UniProt O15111 1-676) (domain or fragment)
- stoichiometry N (IKK1 (1–676) (human)): 2

B1: human IKK1 (residues 10–667; EE), O15111 10-667 (domain or fragment)
chain: T1 chain
- stoichiometry N [3]: 6
- stoichiometry N [4]: 2

B2: HA-IKK1 WT overexpressed in 293T cells, O15111 1-745 (enzyme)
chain: T2 chain
- stoichiometry N [5]: 2

B3: IKK2 (1–700) (domain or fragment, UniProt O14920 1-700, looked up)
chain: MSWSPSLTTQTCGAWEMKERLGTGGFGNVIRWHNQETGEQIAIKQCRQELSPRNRERWCLEIQIMRRLTHPNVVAARDVPEGMQNLAPNDLPLLAMEYCQGGDLRKYLNQFENCCGLREGAILTLLSDIASALRYLHENRIIHRDLKPENIVLQQGEQRLIHKIIDLGYAKELDQGSLCTSFVGTLQYLAPELLEQQKYTVTVDYWSFGTLAFECITGFRPFLPNWQPVQWHSKVRQKSEVDIVVSEDLNGTVKFSSSLPYPNNLNSVLAERLEKWLQLMLMWHPRQRGTDPTYGPNGCFKALDDILNLKLVHILNMVTGTIHTYPVTEDESLQSLKARIQQDTGIPEEDQELLQEAGLALIPDKPATQCISDGKLNEGHTLDMDLVFLFDNSKITYETQISPRPQPESVSCILQEPKRNLAFFQLRKVWGQVWHSIQTLKEDCNRLQQGQRAAMMNLLRNNSCLSKMKNSMASMSQQLKAKLDFFKTSIQIDLEKYSEQTEFGITSDKLLLAWREMEQAVELCGRENEVKLLVERMMALQTDIVDLQRSPMGRKQGGTLDDLEEQARELYRRLREKPRDQRTEGDSQEMVRLLLQAIQSFEKKVRVIYTQLSKTVVCKQKALELLPKVEEVVSLMNEDEKTVVRLQEKRQKELWNLLKIACSKVRGPVSGSPDSMNASRLSQPGQLMSQPSTASNSLPE
- stoichiometry N (SEC [6]): 2

B4: HA-IKK1 HY (H578A Y580A) overexpressed in 293T cells (enzyme, human, UniProt O15111 1-745, looked up)
chain: T2 chain with H578A, Y580A
- stoichiometry N (SEC [7]): 2
